Here are results for one molecule from US12540161B2, “Linkers” (BicycleTx Limited, priority 2020, dated 2026).

As usually defined, the fraction unbound is free concentration divided by total concentration. Read a high fraction unbound as much free substance. As usually defined, the Vd is the apparent volume that relates the amount in the body to the concentration in plasma or blood. Usually clearance stands for the rate of elimination divided by the concentration.

For one series, the target named is Cathepsin B (Homo sapiens, UniProt P07858). Description: Cathepsin B (CatB) cleavage assay. The format is biochemical. To be noted: BTCs. How it is done: 15 μL of test compound solution (2 mM in DMSO) was added to the incubation plate in duplicate. 30 μL of Cathepsin B stock solution (16 μM) was pre-activated with 1500 μL activation buffer for 10 min at room temperature. The Cathepsin B solution was diluted in 13.17 mL water, then 735 μL activatived enzyme mixture was added to the incubation plate. The mixture was incubated at 37° C. in a waterbath. […] The samples were mixed and centrifuged at 4000 rpm for 20 min. 50 μL of supernatant was taken into a new plate containing 150 μL ultra-pure water and the samples mixed thoroughly before submitting to LC-MS/MS analysis.

The nature of series [1]: in vitro. To be noted: mouse, plasma.
The nature of series [2]: Plasma stability analysis, mouse plasma. To be noted: plasma, BTCs. Here is the method:
Pooled frozen plasma was thawed in a water bath at 37° C. Plasma was centrifuged at 4000 rpm for 5 min and the clots were removed if any. The pH will be adjusted to 7.4±0.1 if required. 1 mM stock solution was prepared with DMSO. Propantheline (positive control) was prepared by making a 100 μM working solution by diluting 5 μL of the stock solution (10 mM) with 495 μL ultra pure water. 100 μM working solutions of test compounds were made up by diluting 10 μL of the stock solution (1 mM) with 90 μL DMSO. 98 μL of blank plasma was spiked with 2 μL of dosing solution (100 μM) to achieve 2 μM of the final concentration in duplicate and samples were incubated at 37° C. in a water bath. […] An aliquot of supernatant (150 μL) was transferred from each well before submitting for LC-MS/MS analysis.
The % remaining test compound after incubation in plasma was calculated using following equation: Remaining=100×(PAR at appointed incubation time/PAR at T0 time)
where PAR is the peak area ratio of analyte versus internal standard (IS).
The half-life (T½) was calculated from a log linear plot of concentration versus time.

Series [3] can be described thus: in vitro. To be noted: human, plasma, pH 7.4.
Experimental: (§1) Pooled frozen plasma was thawed in a water bath at 37° C. Plasma was centrifuged at 4000 rpm for 5 min and the clots were removed if any. The pH will be adjusted to 7.4±0.1 if required. 1 mM stock solution was prepared with DMSO. Propantheline (positive control) was prepared by making a 100 μM working solution by diluting 5 μL of the stock solution (10 mM) with 495 μL ultra pure water. 100 μM working solutions of test compounds were made up by diluting 10 μL of the stock solution (1 mM) with 90 μL DMSO. 98 μL of blank plasma was spiked with 2 μL of dosing solution (100 μM) to achieve 2 μM of the final concentration in duplicate and samples were incubated at 37° C. in a water bath. At each time point (0, 1, 2, 4, 6 and 24 hr), 400 μL of 200 ng/mL tolbutamide and labetalol in 100% MeOH was added and mixed thoroughly to precipitate proteins. Sample plates were centrifuged at 4,000 rpm for 15 min. An aliquot of supernatant (150 μL) was transferred from each well before submitting for LC-MS/MS analysis.
(§2) The appointed incubation time points are T0 (0 hr), Tn (n=0, 1, 2, 4, 6, 24 hr). The half-life (T½) was calculated from a log linear plot of concentration versus time.
(§3) When the % remaining value at the maximal incubation time, which was 24 hr in this study, was higher than 75%, it is considered to be within the acceptable experimental variation.
A further series can be described thus: in vivo. To be noted: male, CD-1, mouse, plasma, intravenous.
Series [4] is described as follows: in vitro. To be noted: cynomolgus monkey, plasma.
Series [5] is described as follows: in vitro. To be noted: human, plasma.
Series [6] can be described thus: in vitro. To be noted: rat, plasma, pH 7.4.
Experimental: as §1, §2, §3
Series [7] is described as follows: in vitro. To be noted: rat, plasma, Plasma protein binding (% Unbound) Rat.

Experimental for in vivo: Male CD-1 mice were dosed with each Bicycle Conjugate formulated in 25 mM histidine HCl, 10% sucrose pH 7 via tail vein injection. Serial bleeding (about 80 μL blood/time point) was performed via submadibular or saphenous vein at each time point. All blood samples were immediately transferred into prechilled microcentrifuge tubes containing 2 μL K2-EDTA (0.5M) as anti-coagulant and placed on wet ice. Blood samples were immediately processed for plasma by centrifugation at approximately 4° C., 3000 g. The precipitant including internal standard (350 μL) was immediately added into the 35 μL plasma sample, mixed well and centrifuged at 3220 g, 4° C. for 15 minutes. The supernatant was transferred into pre-labeled polypropylene microcentrifuge tubes, and then quick-frozen over dry ice. The samples were stored at 70° C. or below as needed until analysis. Supernatant samples were mixed with 50 μL water, vortexed well and centrifuged at 3220 g, 4° C. for 15 minutes. A sample of the supernatant was injected for LC-MS/MS analysis using an Acquity UPLC with AB Sciex 6500+ Triple Quad MS in positive ion mode to determine the concentrations of Bicycle Conjugate and released payload. Plasma concentration versus time data were analyzed by non-compartmental approaches using the Phoenix WinNonlin 6.3 software program. C0, Cl, Vdss, T1/2, AUC(0-inf), MRT(0-last), MRT(0-inf) nd graphs of plasma concentration versus time profile were reported.

On to `CC[C@H](C)[C@@H]([C@@H](CC(=O)N1CCC[C@H]1[C@H](OC)[C@@H](C)C(=O)N[C@H](C)[C@@H](O)c1ccccc1)OC)N(C)C(=O)[C@@H](NC(=O)[C@H](C(C)C)N(C)C(=O)OCc1ccc(NC(=O)[C@H](CCN)NC(=O)[C@@H](NC(=O)[C@H](CCC(=O)O)NC(=O)Cn2cc(CCC(=O)NCCC(=O)N(C)CC(=O)N(C)CC(=O)N(C)CC(=O)N(C)CC(=O)N(C)CC(=O)N(C)CC(=O)N(C)CC(=O)N(C)CC(=O)N(C)CC(=O)N(C)CC(=O)N[C@@H](C)C(=O)N[C@H]3CN(C)Cc4cc5cc(c4)CN(C)C[C@@H](C(N)=O)NC(=O)[C@H](C(C)(C)C)NC(=O)[C@H](CC(=O)O)NC(=O)[C@H](Cc4ccc(O)cc4)NC(=O)[C@H](Cc4ccccc4)NC(=O)[C@H](CC(=O)O)NC(=O)[C@H](CCC(=O)O)NC(=O)[C@H](CSC5)NC(=O)[C@@H](C)NC(=O)[C@H](Cc4cccc5ccccc45)NC(=O)[C@H](CCC(=O)O)NC(=O)[C@H](CC(N)=O)NC(=O)[C@@H](C)NC3=O)nn2)C(C)C)cc1)C(C)C` [BCY10981, MMAE-PAB-(Dab-Val-Glu)-BCY3900], for which the “% Parent remaining after incubation with CatB, 0 h” value on Cathepsin B (0 h) is 100%. For the same molecule, the “% Parent remaining after incubation with CatB, 1 h” value at Cathepsin B (1 h) worked out at 0%. Further, the “% Parent remaining after incubation with CatB, 2 h” value on Cathepsin B (2 h) was determined as 0%. In addition, the “% Parent remaining after incubation with CatB, 4 h” value at Cathepsin B (4 h) is listed as 0%. Also, the “% Parent remaining after incubation with CatB, 6 h” value at Cathepsin B (6 h) was found to be 0%. For the same molecule, the “% Parent remaining after incubation with CatB, 24 h” value on Cathepsin B (24 h) worked out at 0%. For the same molecule, the half-life at 40 μM on Cathepsin B (read-out: CatB t1/2 (converted)) was below 0.2 h. Also, the fraction unbound was 0.288 in “in vitro [1]”, 0.459 in “in vitro [4]”, 0.653 in the series “in vitro [5]” and 0.417 in “in vitro [7]”. The half-life at 2 μM in [2] (pH 7.4, Mouse plasma t1/2 (EDTA), EDTA anticoagulant) was above 57.8 h; in series [2] (pH 7.4, Mouse plasma t1/2 (Herparin), heparin anticoagulant), above 57.8 h; in “in vitro [3]” it was 73.8 h; in the series “in vitro [6]”, above 57.8 h. Besides, the C0 in “in vivo” was determined as 30700 ng/mL. For the same molecule, the Vd in the series “in vivo” came to 0.15 L/kg. Moreover, the clearance in the series “in vivo” turned out to be 3.9 mL/min/kg. Moreover, the half-life in the series “in vivo” is 0.6 h.
